We go through nine molecules from patent US20200317768A1 (published 2020).

The Kd is a measure of binding affinity in units of concentration. A higher Kd goes with a looser complex.

The target in the assay is T1, human FcγRIIIaV extracellular domain, His-tagged (human, UniProt P08637 17-208).
T1 construct: also called FcgRIIIaV
The assay is described as follows: SPR, antibody captured, FcgR analyte. (In general: In SPR one partner is held on a chip, and binding of the other changes the refractive index at the surface.)

T1 sequence (P08637 17-208 F176V): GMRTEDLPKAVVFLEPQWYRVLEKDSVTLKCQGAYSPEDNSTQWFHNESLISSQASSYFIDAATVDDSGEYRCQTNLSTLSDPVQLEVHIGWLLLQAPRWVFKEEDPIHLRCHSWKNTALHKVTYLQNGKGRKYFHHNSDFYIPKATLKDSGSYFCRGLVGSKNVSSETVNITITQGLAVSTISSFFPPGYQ

B1: MS_M103205H795-SG1/M103202L889-SK1 (antibody, human IgG1, kappa)
heavy: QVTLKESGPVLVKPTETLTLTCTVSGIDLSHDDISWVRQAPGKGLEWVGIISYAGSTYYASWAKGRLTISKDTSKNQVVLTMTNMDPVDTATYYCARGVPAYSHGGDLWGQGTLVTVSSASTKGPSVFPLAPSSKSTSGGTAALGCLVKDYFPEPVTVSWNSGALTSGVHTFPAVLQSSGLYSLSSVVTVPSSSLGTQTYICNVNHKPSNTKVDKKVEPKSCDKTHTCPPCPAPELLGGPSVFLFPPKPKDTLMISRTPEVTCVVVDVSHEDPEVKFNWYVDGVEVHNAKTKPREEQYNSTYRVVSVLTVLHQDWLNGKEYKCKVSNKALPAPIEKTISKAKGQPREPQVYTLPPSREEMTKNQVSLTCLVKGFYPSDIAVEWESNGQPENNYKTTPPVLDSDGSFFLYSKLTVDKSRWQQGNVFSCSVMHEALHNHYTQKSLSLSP
light: DIVMTQSPATLSLSPGERATLSCTSSQSVYHANWLSWFQQKPGQPPKLLIYWASTLAYGVPSRFSGSGSGTDFTLTISSLQPEDAATYYCAGGYGGGRYAFGQGTKVEIKRTVAAPSVFIFPPSDEQLKSGTASVVCLLNNFYPREAKVQWKVDNALQSGNSQESVTEQDSKDSTYSLSSTLTLSKADYEKHKVYACEVTHQGLSSPVTKSFNRGEC
notes: Parent antibody of the Fc variants; heavy chain constant region SG1, light chain M103202L889-SK1; also called MS1032LO06-SG1
With B1, the affinity, expressed as Kd, was 810 nM.

B2: M103205H795-MY037/M103202L889-SK1 (antibody, human IgG1, kappa)
heavy: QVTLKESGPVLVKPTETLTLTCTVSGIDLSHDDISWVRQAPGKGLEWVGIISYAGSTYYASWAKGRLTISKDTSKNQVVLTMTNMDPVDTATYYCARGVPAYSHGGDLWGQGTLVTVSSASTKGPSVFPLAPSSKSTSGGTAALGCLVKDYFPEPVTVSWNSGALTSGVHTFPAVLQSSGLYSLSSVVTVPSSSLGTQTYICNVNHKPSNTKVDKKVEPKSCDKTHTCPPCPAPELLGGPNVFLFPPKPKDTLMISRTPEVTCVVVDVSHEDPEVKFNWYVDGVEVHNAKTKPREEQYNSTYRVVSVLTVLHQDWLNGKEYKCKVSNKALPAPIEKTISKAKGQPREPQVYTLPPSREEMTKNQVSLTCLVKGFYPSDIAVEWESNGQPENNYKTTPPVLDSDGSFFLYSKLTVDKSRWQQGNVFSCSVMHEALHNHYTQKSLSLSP
light: DIVMTQSPATLSLSPGERATLSCTSSQSVYHANWLSWFQQKPGQPPKLLIYWASTLAYGVPSRFSGSGSGTDFTLTISSLQPEDAATYYCAGGYGGGRYAFGQGTKVEIKRTVAAPSVFIFPPSDEQLKSGTASVVCLLNNFYPREAKVQWKVDNALQSGNSQESVTEQDSKDSTYSLSSTLTLSKADYEKHKVYACEVTHQGLSSPVTKSFNRGEC
notes: Substitution put into M103205H795-SG1
Turning to B2, the Kd was 370 nM.

B3: M103205H795-MY006/M103202L889-SK1 (antibody, human IgG1, kappa)
heavy: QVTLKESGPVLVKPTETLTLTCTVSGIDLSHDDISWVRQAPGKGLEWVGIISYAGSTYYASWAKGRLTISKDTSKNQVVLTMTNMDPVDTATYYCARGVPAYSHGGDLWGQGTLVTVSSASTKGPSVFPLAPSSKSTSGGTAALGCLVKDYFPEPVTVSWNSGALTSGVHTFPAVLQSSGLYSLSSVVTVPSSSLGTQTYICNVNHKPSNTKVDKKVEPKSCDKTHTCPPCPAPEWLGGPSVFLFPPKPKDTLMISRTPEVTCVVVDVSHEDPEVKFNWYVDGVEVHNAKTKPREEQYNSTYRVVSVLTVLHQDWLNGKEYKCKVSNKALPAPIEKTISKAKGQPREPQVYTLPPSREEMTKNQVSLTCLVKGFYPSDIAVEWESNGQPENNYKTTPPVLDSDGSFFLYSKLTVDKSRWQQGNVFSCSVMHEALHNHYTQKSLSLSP
light: DIVMTQSPATLSLSPGERATLSCTSSQSVYHANWLSWFQQKPGQPPKLLIYWASTLAYGVPSRFSGSGSGTDFTLTISSLQPEDAATYYCAGGYGGGRYAFGQGTKVEIKRTVAAPSVFIFPPSDEQLKSGTASVVCLLNNFYPREAKVQWKVDNALQSGNSQESVTEQDSKDSTYSLSSTLTLSKADYEKHKVYACEVTHQGLSSPVTKSFNRGEC
notes: as for B2
B3 returned a Kd of 730 nM.

B4: M103205H795-MY008/M103202L889-SK1 (antibody, human IgG1, kappa)
heavy: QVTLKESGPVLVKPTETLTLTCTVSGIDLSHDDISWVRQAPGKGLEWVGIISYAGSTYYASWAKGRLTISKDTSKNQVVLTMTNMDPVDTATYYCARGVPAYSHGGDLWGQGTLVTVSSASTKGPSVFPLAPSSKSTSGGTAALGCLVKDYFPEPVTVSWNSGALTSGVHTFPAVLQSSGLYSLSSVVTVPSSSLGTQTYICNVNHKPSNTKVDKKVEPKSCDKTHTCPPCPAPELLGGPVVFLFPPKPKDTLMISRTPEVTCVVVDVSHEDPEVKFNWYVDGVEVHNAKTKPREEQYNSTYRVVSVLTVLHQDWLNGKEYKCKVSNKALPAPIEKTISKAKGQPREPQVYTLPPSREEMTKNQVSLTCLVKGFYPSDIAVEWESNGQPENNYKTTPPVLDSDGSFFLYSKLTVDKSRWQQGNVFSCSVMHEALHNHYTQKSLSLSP
light: DIVMTQSPATLSLSPGERATLSCTSSQSVYHANWLSWFQQKPGQPPKLLIYWASTLAYGVPSRFSGSGSGTDFTLTISSLQPEDAATYYCAGGYGGGRYAFGQGTKVEIKRTVAAPSVFIFPPSDEQLKSGTASVVCLLNNFYPREAKVQWKVDNALQSGNSQESVTEQDSKDSTYSLSSTLTLSKADYEKHKVYACEVTHQGLSSPVTKSFNRGEC
notes: as for B2
The molecule B4 yielded a Kd of 630 nM.

B5: M103205H795-MY014/M103202L889-SK1 (antibody, human IgG1, kappa)
heavy: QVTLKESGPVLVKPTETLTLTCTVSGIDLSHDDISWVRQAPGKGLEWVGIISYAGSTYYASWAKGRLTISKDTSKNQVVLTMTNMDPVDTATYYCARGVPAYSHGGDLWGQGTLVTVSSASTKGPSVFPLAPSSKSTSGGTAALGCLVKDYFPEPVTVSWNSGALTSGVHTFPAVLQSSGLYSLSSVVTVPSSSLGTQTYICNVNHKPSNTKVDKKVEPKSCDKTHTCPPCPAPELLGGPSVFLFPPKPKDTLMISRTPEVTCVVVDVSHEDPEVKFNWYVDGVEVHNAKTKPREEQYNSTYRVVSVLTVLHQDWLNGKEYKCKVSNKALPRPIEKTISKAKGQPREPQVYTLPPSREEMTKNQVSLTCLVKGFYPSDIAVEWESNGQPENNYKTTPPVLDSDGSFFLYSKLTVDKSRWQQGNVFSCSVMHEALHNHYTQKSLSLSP
light: DIVMTQSPATLSLSPGERATLSCTSSQSVYHANWLSWFQQKPGQPPKLLIYWASTLAYGVPSRFSGSGSGTDFTLTISSLQPEDAATYYCAGGYGGGRYAFGQGTKVEIKRTVAAPSVFIFPPSDEQLKSGTASVVCLLNNFYPREAKVQWKVDNALQSGNSQESVTEQDSKDSTYSLSSTLTLSKADYEKHKVYACEVTHQGLSSPVTKSFNRGEC
notes: as for B2
Molecule B5 came in with a Kd of 690 nM.

B6: M103205H795-MY013/M103202L889-SK1 (antibody, human IgG1, kappa)
heavy: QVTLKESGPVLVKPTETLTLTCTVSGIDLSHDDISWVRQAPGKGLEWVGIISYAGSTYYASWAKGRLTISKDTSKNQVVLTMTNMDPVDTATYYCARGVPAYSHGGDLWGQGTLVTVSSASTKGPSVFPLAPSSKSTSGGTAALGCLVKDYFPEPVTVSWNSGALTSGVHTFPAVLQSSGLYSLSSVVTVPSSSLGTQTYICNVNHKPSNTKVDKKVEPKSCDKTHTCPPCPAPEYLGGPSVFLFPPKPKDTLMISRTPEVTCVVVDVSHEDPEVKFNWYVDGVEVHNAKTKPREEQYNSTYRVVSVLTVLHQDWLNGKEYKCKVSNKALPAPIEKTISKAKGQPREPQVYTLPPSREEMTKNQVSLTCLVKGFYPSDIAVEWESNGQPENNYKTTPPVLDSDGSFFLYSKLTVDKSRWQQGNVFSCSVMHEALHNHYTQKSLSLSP
light: DIVMTQSPATLSLSPGERATLSCTSSQSVYHANWLSWFQQKPGQPPKLLIYWASTLAYGVPSRFSGSGSGTDFTLTISSLQPEDAATYYCAGGYGGGRYAFGQGTKVEIKRTVAAPSVFIFPPSDEQLKSGTASVVCLLNNFYPREAKVQWKVDNALQSGNSQESVTEQDSKDSTYSLSSTLTLSKADYEKHKVYACEVTHQGLSSPVTKSFNRGEC
notes: as for B2
Turning to B6, the Kd stood at 410 nM.

B7: M103205H795-MY016/M103202L889-SK1 (antibody, human IgG1, kappa)
heavy: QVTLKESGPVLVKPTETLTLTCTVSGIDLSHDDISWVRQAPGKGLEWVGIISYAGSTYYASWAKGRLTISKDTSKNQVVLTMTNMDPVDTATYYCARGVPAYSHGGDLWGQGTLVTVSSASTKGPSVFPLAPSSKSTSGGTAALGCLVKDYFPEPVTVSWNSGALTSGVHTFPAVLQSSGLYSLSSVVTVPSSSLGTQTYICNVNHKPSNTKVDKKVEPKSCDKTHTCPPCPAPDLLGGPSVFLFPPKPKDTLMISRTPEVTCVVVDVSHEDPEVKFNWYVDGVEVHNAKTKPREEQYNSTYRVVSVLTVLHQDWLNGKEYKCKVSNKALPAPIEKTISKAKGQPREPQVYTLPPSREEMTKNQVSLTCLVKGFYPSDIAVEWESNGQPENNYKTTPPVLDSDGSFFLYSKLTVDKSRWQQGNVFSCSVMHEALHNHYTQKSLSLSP
light: DIVMTQSPATLSLSPGERATLSCTSSQSVYHANWLSWFQQKPGQPPKLLIYWASTLAYGVPSRFSGSGSGTDFTLTISSLQPEDAATYYCAGGYGGGRYAFGQGTKVEIKRTVAAPSVFIFPPSDEQLKSGTASVVCLLNNFYPREAKVQWKVDNALQSGNSQESVTEQDSKDSTYSLSSTLTLSKADYEKHKVYACEVTHQGLSSPVTKSFNRGEC
notes: as for B2
B7 displayed a Kd of 370 nM.

B8: M103205H795-MY010/M103202L889-SK1 (antibody, human IgG1, kappa)
heavy: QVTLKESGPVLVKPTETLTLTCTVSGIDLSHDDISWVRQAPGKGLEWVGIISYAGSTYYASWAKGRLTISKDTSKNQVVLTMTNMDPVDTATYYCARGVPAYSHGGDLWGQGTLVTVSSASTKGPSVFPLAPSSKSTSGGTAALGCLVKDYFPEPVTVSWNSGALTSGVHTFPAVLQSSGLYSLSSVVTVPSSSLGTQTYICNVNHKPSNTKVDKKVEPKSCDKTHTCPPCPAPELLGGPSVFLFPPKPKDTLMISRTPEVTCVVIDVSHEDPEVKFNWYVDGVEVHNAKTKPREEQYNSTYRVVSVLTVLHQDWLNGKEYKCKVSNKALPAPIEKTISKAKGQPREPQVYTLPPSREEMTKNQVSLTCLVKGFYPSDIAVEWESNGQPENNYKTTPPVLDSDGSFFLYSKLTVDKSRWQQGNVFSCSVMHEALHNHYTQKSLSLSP
light: DIVMTQSPATLSLSPGERATLSCTSSQSVYHANWLSWFQQKPGQPPKLLIYWASTLAYGVPSRFSGSGSGTDFTLTISSLQPEDAATYYCAGGYGGGRYAFGQGTKVEIKRTVAAPSVFIFPPSDEQLKSGTASVVCLLNNFYPREAKVQWKVDNALQSGNSQESVTEQDSKDSTYSLSSTLTLSKADYEKHKVYACEVTHQGLSSPVTKSFNRGEC
notes: as for B2
The molecule B8 displayed a dissociation constant Kd of 220 nM.

B9: M103205H795-MY038/M103202L889-SK1 (antibody, human IgG1, kappa)
heavy: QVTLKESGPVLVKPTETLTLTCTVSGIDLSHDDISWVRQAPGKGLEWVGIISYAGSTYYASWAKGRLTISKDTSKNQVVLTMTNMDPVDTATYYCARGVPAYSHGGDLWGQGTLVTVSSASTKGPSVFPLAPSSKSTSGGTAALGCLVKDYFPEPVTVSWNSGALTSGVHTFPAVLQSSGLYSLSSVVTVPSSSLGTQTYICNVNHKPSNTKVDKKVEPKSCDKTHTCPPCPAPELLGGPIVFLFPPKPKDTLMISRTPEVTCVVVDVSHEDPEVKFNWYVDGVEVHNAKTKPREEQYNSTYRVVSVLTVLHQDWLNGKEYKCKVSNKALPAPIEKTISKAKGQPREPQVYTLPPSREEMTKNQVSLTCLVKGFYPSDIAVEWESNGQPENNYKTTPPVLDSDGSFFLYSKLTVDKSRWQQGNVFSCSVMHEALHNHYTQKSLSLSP
light: DIVMTQSPATLSLSPGERATLSCTSSQSVYHANWLSWFQQKPGQPPKLLIYWASTLAYGVPSRFSGSGSGTDFTLTISSLQPEDAATYYCAGGYGGGRYAFGQGTKVEIKRTVAAPSVFIFPPSDEQLKSGTASVVCLLNNFYPREAKVQWKVDNALQSGNSQESVTEQDSKDSTYSLSSTLTLSKADYEKHKVYACEVTHQGLSSPVTKSFNRGEC
notes: as for B2
B9 registered a Kd of 650 nM.
